This assay deals with Smac/DIABLO, endogenous (human (endogenous in HEK293F and HEK293T)). Nature of the assay: cryo-EM structure; FLAG-BIRC6 purified from HEK293F, cross-linked with 0.01% glutaraldehyde; global map 3.6 Å; a class with endogenous co-purified Smac in the central cavity at 4.7 Å.

We go through 1 substance from article PMC10827748.

Turning to “Smac/DIABLO, endogenous (natural protein)”, the stoichiometry N (commonly the number of molecules, sites or subunits per partner or assembly) stood at 2.
